According to the DeepSol protein solubility set:

Assay: soluble on expression in E. coli; label from the status in PepcDB or PDB records

Row | Sequence | soluble on expression in E. coli
1 | MGSDKIHHHHHHMKIDDMDAFVAVIRCQSTNLAAEALQLTQPAITRRVQNFEEDLGATLLDRNTKPLKPTPMGLRVYEQCKAILREIDSLRELVANDGAPSGTLRLGVPQTLGDVVLLDALAQIREAYPQLRTQVTSGWGSSLIARMENGELDAAAALFPPGKIFPEGIASQSIARMPLRVVTAKGSAGKRSYKLKDCYTRGWVLNPDGCGFRAGLQRALSEQGLSLSINLETFGTELQLGLVANGQGLGLVPEPLLQTSRHRSALDVLNISDFKPQVDLWLFHPRYLGNLQEPVELFGEVAGHRLLG | not soluble
2 | MGSDKIHHHHHHMKIDRLISIIIVLLRRERVQAKELAEMFGVSVRTILRDVDTINLGGIPIITYQGVNGGISIAEGYRLDKSVLSAGDMATLISTLKGVAASIPDSRFDILAEKLKNPLSTSQLELLDLKSRQMIIDLSPWGTNEQLKGKITLLRQAIENYREIEFAYIDAAGTRSIRQVEPYALLLKGQSWYLFAWCLLRQDFRLFKLIRIKNLQLVNITYQPREVPMEQDYFENQWQETARPVELDLLFDKEMENVVEECFGGDIMRQDDGRIMVKVCLPENNWLYGYLLSFGGGMEVVNPPHIRSILAAIAEKIYKTYSS | not soluble
3 | MGSDKIHHHHHHMKIGILSQFPELYSTRRLVAACESRGHEAVVINTLNCYMNINSIKPSIHYQGQELTGFDAIIPRIHASVTFYGCAVVRQFEMMGVFAANDSISIARSRDKLRALQLLSRKGIGMPITGFANKPNDIPDLINMVGGAPLVIKLLEGTQGIGVVLAETKTAAESVIEAFLGLKANIMLQEYIKESNGSDIRCFVVGDKVVASMKRQGPEGDFRSNLHLGGCGEKVKITPKERKMAVAAVKAMGLVVAGVDILRSNRGPLILEVNSAPGIEGIEQTTGISVTEPIVEYIEKMVLAQKSNRPVIA | not soluble
4 | MGSDKIHHHHHHMKIGIVISGGDVSGMNNFIFQIARQANADITLFNGGIPGLLEKSHQDMAWRDLVDYSITAVPIITSGRTSRKLQRSEYESIAKKLKSLRIDVLIMAGGDGSLQFLNTLSEFEINCFGVGMTIDNDVYGSDYTIGFSTACEQIIKEVSRLRNTGRALPGRVFMVEILGGYCGELTLQSAIKCNADIALIPEAQMPLAVLAERITRKLSAQNSVVILCSEGYTKEYSPGFQGAIDTMIKQLEPQIGVRIRKTIVGYGLRSGDPTCEEIYQGTIMASEVVRCIQSGMKNKAIIINSSNKPIPIDLVSMKKRLVDTEGHHYKLAKQLNII | not soluble
5 | MGSDKIHHHHHHMKILITGATGFVGRNLVPYLFSHGFVELAIAVRDPQKAISMFESIPLTYISCERTFRQQIIDFAPEVVIHLATNFNFHSDEKSVRDIVDANILFGSLLLEAVSYTPCKFFINLGTFAEYYYNDGNFLPNTFYAATKTAFRSIIQYYQLKGDFKWINLIGYTIYGKKNDSKKIIDYLIDALNSPIPLNFTKGEQINDFIHINDVSDFFYVLLSNLNLLEDTMYTQLYLGTGKGTSIRELSYIIETVYKQKVNANWGGLSYRPYDIMYAVAPISRNLDLLKWKTKISLEEGIKMLRYE | not soluble
6 | MGSDKIHHHHHHMKILQIVPSISLIYGGPSQMVLGLAPALVKEGVEVTILTTDSNGDNGQTPLDVPLNRPIKQDGYEIIYFRCAPFRRYKFSLDLLKWLKRHAHEFDLAHIHALFSPIISAAAIVCRQQKLPYIFRPLGTLDPADLRKKKQLKQLYVAIIERQNLASAAAIHFTSEQEAKISERFGVSTPDLVIPLGVIPRQSSLKNVCSQLEIPKDVPLVLFMSRIDPKKGLNLLIPALEKLLAVGYKFHFVLAGTNPQDPDYEQKIISQIQNSPLRSHTTITGFVTGELKVSLLQAADLFVLPSYYENFGIAVAEAMVAGVPVVISDQVHICQQIRDSESGWVGATDVQALVELLQAALQNPAERQRRGLNAQKYALENFSWDAIARQTIQAYQKILANK | not soluble
7 | MGSDKIHHHHHHMKILVYGINYSPELTGIGKYTGEMVEWLAAQGHEVRVITAPPYYPQWQVGENYSAWRYKREEGAATVWRCPLYVPKQPSTLKRLLHLGSFAVSSFFPLMAQRRWKPDRIIGVVPTLFCAPGMRLLAKLSGARTVLHIQDYEVDAMLGLGLAGKGKGGKVAQLATAFERSGLHNVDNVSTISRSMMNKAIEKGVAAENVIFFPNWSEIARFQHVADADVDALRNQLDLPDNKKIILYSGNIGEKQGLENVIEAADRLRDEPLIFAIVGQGGGKARLEKMAQQRGLRNMQFFPLQSYDALPALLKMGDCHLVVQKRGAADAVLPSKLTNILAVGGNAVITAEAYTELGQLCETFPGIAVCVEPESVEALVAGIRQALLLPKHNTVAREYAERTLDKENVLRQFINDIRG | not soluble
8 | MGSDKIHHHHHHMKIQPLPPLNSLHAFESAARHLSFTLAAKELNVTQGAISRQVRLLEDYLGKALFTRTTRSMSLTPTGAQYYETVRECMLHLARATGDIRQWQGNQQVTVATSTAMASLWLLPKVSEFQSAHENIDLRIIAHDHVKDYARLDSDLALYYCNPPPKDMAVTPLFSEEIFLVCSPAYLARHPQLSSIEGLSSCTWLWLEDSQRDWVGWPEWFKRLGYEPMTPKHRVNINSYGMLIQSAISGQGVALAWGNLVDDALSTGALVKPNDVVLQTDAKFCLLESSTERGPRESVRLFRDWLMALPSVQK | not soluble
9 | MGSDKIHHHHHHMKIRYGIIGVGGHGKNRHLIPLIKLKNKVEIVAVADVKKERCEEVSSQFNIKCYLDYMEMVEKESLNAVSIVTPTGLHSRIAINVLNKGVNVLVDKPLGSNLEEVKEVVNTARNKGLKLMVGYWSRFSPALQYGKEIIHNGLLGEPYVAYGYLVRRRGIPGIPTFIDKTLSGGRGALLDIGCYLIDNLLSLLKFRKPISVMGKVYTKFGNVKEEVKFNWGSWDPENFSLDDYAVGLVKLEGDVSLILEVGWSANVSHVEEKSYVRILGDKGGIEGSGHEAIVDISFHSRTENFLTDTKPVLRKVDPYFEMINAFVDSILTDREPPITGEESVTLHSIIDGIYKSSTEDKEVKISL | not soluble
10 | MGSDKIHHHHHHMKITFGQQTTKVKQLADKISFDISMGVYKSGDSLPSINQLSQAYEVSRDTVFKAFLDLKERGIIDSTPGKGYYVVGRLKNVLLLLDEYSPFKYALYNSFVKRLSIRYKVDLLFHQYNERLFNTIIRESLGRYNKYIVMNFDNEKLSPNLYKINPSKLLLLDFGKFEKEGFSYVCQDFDQGFYNALFQLADRLRKYQKLVFVLVDDSMHPRSSRDFFERFCADQHLGCEVVSDIEGLQVRRGEVYIAIRQIDVVSIIKKSRVEGLQCGVDFGLIGYNDTPAYEVIDQGITALSVDWEKMGDKAAEFVLQGKTIQDYLPTEVRLRASL | not soluble
11 | MGSDKIHHHHHHMKITLNSVSFRYNGDYVLKDVNAEFETGKIYVVVGKNGSGKTTLLKILAGLLEAEGEIFLDGSPADPFLLRKNVGYVFQNPSSQIIGATVEEDVAFSLEIMGLDESEMRKRIKKVLELVGLSGLEKEDPLNLSGGQKQRLAIASMLARDTRFLALDEPVSMLDPPSQREIFQVLESLKNEGKGIILVTHELEYLDDMDFILHISNGTIDFCGSWEEFVEREFDDVEIPFKWKLWKKCGKINLWEDRYENSGNQRRRDTV | not soluble
12 | MGSDKIHHHHHHMKITVLYSGNYGERVLNTILEKFAQNIVSIHEIPENLPEYIDDVSEYVPENLKESDLIISVGLFGDINLIVCDIAKKTNAKSIIIESHSPKQVTKGLKSEISDSLNEIKIVFPKPFCSLKPVGDTYIDEFAKYFGSPEIEIIGETIVKSVIVKRNAPCGSTKYVAENLTGYSLNEVEFESGNKLHNYPCLASMDVDNEIGDTILHLAGYKIKEAVKKSLKFSNKILTVTGDCKGFECGFKCYKICPVVKMGENAVEIEKTHVNINNLFCGCCMKCVDICPFNAIKVLNYKI | not soluble
13 | MGSDKIHHHHHHMKIVFMGTPEFAAAHLKEIVESGNKVAGVFSQPDRPKGRGQKVEPTPVKTVATNYGIPVFQPEKINSDEGFEKLSELSPDIIVVVAFGKLLKSGVINLPTIGCFNVHASLLPKYRGAAPIQRAIENGETKTGITIFKIDEGMDTGAIALKRELEIHPSDSFGSLYLKLAELGKKTLVHFLERVKEGRLELAPQDGIPSFAPKIQPEDLVISDLSDAAKVVNKIRAYDPQPGARVSVEGRISKVFGASLKCRNEGKGIVGEIVKIDDRGMIVSCGAENVIISLVQFPGKKPMRPKDALSGRLISEGIILGG | not soluble
